experiment: soluble on expression in E. coli; label from the status in PepcDB or PDB records

Sequence	soluble on expression in E. coli
MIGRNRYAMLTVDTEALPKRAVQDHIKRLMWGEHDGGCAGIREMCAIGNECGVKQVFFVDMCGAYACLDQTLDVVRWLDQDGQDVQLHAHPEYLPEQFWKEHGFKYRPRFLNQYGIEKATFTIKYFGKLISDLTGKPLRAFRAGSFRWNADTLRALQEAGVSLSFNNSMNARLKGQCTYSEPTNHSYLWSNGVIEVPVTERKFFPLFGKEWWGRLQFPVGDWLGSPPWRVLRPYTVGADPSFLVVLLHSWSLLYWDKDGYAVYRDDKRIEDYRKLVRRLARDYDIITTADFLDLYACGKIKTTHTADLSLAEFKAVKKLEHHHHHH	not soluble
MIHIDKNVRTSGAYVMYKNSFVFQVGPTSKGDTLGVVRLGGHKEADETAVETAKREVEEEASIDITILNSPTTYYKEYWNAQSKKLKVENKVNPILIIDSPDESLSIMYVAYSKMQPKPSSETKGLLLLSLNDIELICTGKITLNDYINQGGVSILKEKMDKELILQPFPQLMFLSELLKEDPVLLQQFLNLEHHHHHH	soluble
MIHSMTAFSRIQKQFDVGDFCWEIRSVNHRYLDVSFRLPESFRFLEAELRTLLRDKIHRGKLECHLKYKDTSCDNRSMLINIGTINALLDLSSKLSASHHLANDMTVSQVLSWPGVVEANLLDMEELSQIALELFQKSIDKLCEVRAGEGRSLKAYVEDRLQALRQEVMKSKSIVVSMSAKTKDKLLTRLHELQMDVPEARVEQEIALLLAKLDVSEELDRLETHIAEVSRTLNAEKVTGRRLDFLMQELNREANTLSSKSDSAELTLCAVEMKVLIEQMREQIQNFE	not soluble
MIHYRMDQPDRVRCSVCGGIADEVDETYPEEGDFILVIYRCRDCGHLEKRQYGKPVKIID	not soluble
MIINLVKQLGTTRGYITLWTGIDSAIAALAVQGIASHRTQQYIDEYYPNIGGPLLNQDKEEDELTDAESFRRVIRNGFRDSVIRVVAVTAARPFAVCFARQVAQVIGNETKYTTCAQALAVIGKQEGPGGLFSGLAPQIVGELLVIWGVHLITHGIQRAILRIEFGDTKNKDETKAKAAKDVHKFIHTAVPFLVNSFGYPYSVVSTVMAVAGSGLAVSFLPYSPSFNNWHGAWDYLRPIGLKRGNRLFLREQVGAVTVGVDQQLYASNSYFA	not soluble
MIIQNEFNLYPSNMLPERFCYPEKYVRISNDTSLIPYIQPHNFHWWFENYGTEGAEVAYIFRNSILPDLNLIPFASNGEWEAYFDGNDVTGNSRVIVINLDNIENHEFFNSFEDWLELAIKDTW	not soluble
MIIRPERQGDEEAIARVTEDAFRNVEHRSGTEQLIVARLRDAGALTVSLVAEDSEGIIGHVGFSPVTLSSGETGWFCLAPLSVTPERQGEGVGSRLARDGLAVLERLSAAGCVVVGDPAYYGRFGFRPVAGLSAEGIPDEYFTVLRLHGGTPSGIVGFHPGFDGDNA	not soluble
MIIYFIGTGGSEGIPVHLCDCNTCNEARKFRFAQRRPSTLAVIGENGEVILFDVGTDIREFLNVPLDAIFLTHWHHDHIYGLYKLRWIARETNLYAPEGHADALILQDPKNLRPKIIKAGEKIRIGDIKVTSVKLNHQIETLGYIIEEDGKRVAILYDTKGLPPETREYLEDISPLRVAIVDATYPPGFVDPYHNNVNEAVEMSIDIAERIVLSHISHKNLPFLKLVNYTRKMWGGKVLVAYDGMVFYV	soluble
MIKIAITKGRIQKQVTKLLENADYDVEPILNLGRELQIKTKDDLQIIFGKPNDVITFLEHGIVDIGFVGKDTLDENDFDDYYELLYLKIGQCIFALASYPDFSNKNFQRHKRIASKYPRVTKKYFAQKQEDIEIIKLEGSVELGPVVGLADAIVDIVETGNTLSANGLEVIEKISDISTRMIVNKSSFKFKKDKIIEMVERLEDAQTN	soluble
MIKIGAHMPISKGFDRVPQDTVNIGGNSFQIFPHNARSWSAKLPSDEAATKFKREMKKHGIDWENAFCHSGYLINLASPKDDIWQKSVELLKKEVEICRKLGIRYLNIHPGSHLGTGEEEGIDRIVRGLNEVLNNTEGVVILLENVSQKGGNIGYKLEQLKKIRDLVDQRDRVAITYDTCHGFDSGYDITKKEGVEALLNEIESLFGLERLKMIHLNDSKYPLGAAKDRHERIGSGFIGEEGFAVFFSFKEIQEVPWILETPGGNEEHAEDIKKVFEIIEKFGIEVD	soluble
MIKIKENRMSQSNVIIVHGAYGHPFENWFNWMKTELESLGIECFVPQLPTPDGQELKNWLHVFNSTVSPMITHDTILIGHSLGSAFLLRWLEQANQSVFSTILAGSFIGTVGIQKFDKINESFFENGFDWHSIINKSKQFFCYHGSNDPYISRSNFNFIANNLQARKIIISQGGHLNEAAGFSSFPQLLIQLKSLLGINYGKFI	not soluble
MIKNILILSSNNTGHGHKSITESLLEQFSHYPDVNVHVIDGFTLAGNFGLRIGKLYGSVTRNAKELWKLVWELSLKKPSLLNDFTEVAIKDNFLKLICNIKPDLILSVHPNFNGSVLNILEDYNIKVPFVTLLADIVSITPLWADPRADYIICPSKESKFKCLEFGVSESKLIETGFPVRQKFLKLEHHHHHH	not soluble
MIKPEYVVKLLSENMKKTRNPLGIKNEKTNNWWKKVEISKEGDWLFFTGMLYQLTPYIEATVKFLEKIENSRLQGLLTLSKAFPVPFSLLKAITPREAREEAETILQKVYFLLAKSVDVFYAPHLDFYSGILLYDFGHDEAFAEHAKFVCKRLESAGIEKIVTPDPHTTYALKVLYPKFTGVEFDVKSYIELLSDAKSLFNEEFVIHDPCYYGRYLELSDRVREVLNCAGVKYRGVRYSGRLTNCCGGPVEALSPKISREIARLRVEELGNSRIITFCPICLANLRRAGGNAVDFSMVVG	not soluble
MIKRPHVMQDSIQDCGVACIEMICKFYNINIDRRYIQEETGYGMIGISLKAMEKFFSKVDANPEIVNISKINRLNKENREMINNSLPAIVFLEEEEIINHFVVIWHIGKKRILVSDPTHTKKEWINNKHFEKRAISYLFVEKPKNI	not soluble
MILCSEKEKCEGIKNSKDEGIIPRVLILSTLQGEPSREKAKIGIFGINPGPHLPFERLYYTDILKKHGLFTSEYSKSNAIKAFKEIHDTWVSEFIKNYRNYPFHYKYFANTLEFLKKAKTVLIYRRKYNSVWRISILLEHHHHHH	not soluble
MILDTSVIIRIFRDRNFFEVLKERIDDDVKITSVTAYELQRGAVYIMLKHGRDYEFKLIRDFLEEVEILSFTPKDSEISAMIWAKLREKGYELNDADIMISAVSIRENEKLVTLDRDFEYISRVSELDVDILEEEL	not soluble
MILDVDYITEEGKPVIRLFKKENGKFKIEHDRTFRPYIYALLRDDSKIEEVKKITGERHGKIVRIVDVEKVEKKFLGKPITVWKLYLEHPQDVPTLREKVREHPAVVDIFEYDIPFAKRYLIDKGLIPMEGEEELKILAFDIETLYHEGEEFGKGPIIMISYADENEARVITWKNIDLPYVESVSTEKEMIKRFLRIIREKDPDIIVTYNGDSFDFPYLAKRAEKLGIKLTIGRDGSEPKMQRIGDMTAVEVKGRIHFDLYHVIRTTINLPTYTLEAVYEAIFGKPKEKVYADEIAKAWESGENLERVAKYSMEDAKATYELGKEFLPMEIQLSRLVGQPLWDVSRSSTGNLVEWFLLRKAYERNEVAPNKPSEEEYQRRLRESYTGGFVKEPEKGLWENIVYLDYKSLYPSIIITHNVSPDTLNLEGCKNYDIAPQVGHKFCKDIPGFIPSLLGHLLEERQKIKTKMKETQDPIEKILLDYRQKAIKLLANSFYGYYGYAKARWYCKECAESVTAWGRKYIELVWKELEEKFGFKVLYIDTDGLYATIPGGESEEIKKKALEFVKYINSKLPGLLELEYEGFYKRGFFVTKKRYAVIDEEGKVITRGLEIVRRDWSEIAKETQARVLETILKHGDVEEAVRIVKEVIQKLANYEIPPEKLAIYEQITRPLHEYKAIGPHVAVAKKLAAKGVKIKPGMVIGYIVLRGDGPISNRAILAEEYDPKKHKYDAEYYIENQVLPAVLRILEGFGYRKEDLRYQKTRQVGLTSWLNIKKS	soluble
MILGEIMEVLAFKNQSLIDHVNDMVKYWERIKYRYLKTIKRALEALNIKLDIEKVDEFMKILIKLHDIGKASKIYQRAIINDQEKLMGFRHELVSAYYTYHILLKKFGDKNLAFIGALTVMLHHEPIIMGQIRNLKKKELTAEVVLDKLKKFDGMIEDFEDLIKKLIGYSIGDIIKNDSNKDDIIRFVIEMSVRARHTPNSEKLRFIVGTLLLPLVMCDYKGAESREGKAPKFAEVLEVESYVI	soluble
MILLLLLFILGSVSPDELISTRCQAQCLHLMDQRLQNNMELRKTLKHHIIQLCKEDATCSACSAPCREQFDDIKACKKSCVASDDRETCEDSCHYLQRIYQEKPGACPSVSNQSNYECSALCQMDGECPETQKCCSSGCSRQCLKPRSSDIKLLPIPRNISVQERKRKRSIIIRWATGRLSKAQQNENANLFLVQWRWGLHADESAMTEWQTVTVRNKPYAILKHLLSPGRFYEFRTAAVSQEGSLGFSSPSKPFKISKEAKAPPPPKDLSLGASKVVASGLWNQMVHWNPPPSDLPIKNYQISWASSTKSEADAFEEQMRKKSTLEFAAHEKRSLQSDDDEEFIGIQERDRQSVVVPSHATSSEITGLFPNSVYLVEIHASVDSSDGELHGEKGVVFIRTADSLSAVPEDREPYTGPKARIAHGSEELKIEASLKDLKTSSHAPNRPNSPQPAHLEIQTPFFDTELQTQLNWLNAAHCTPAKRQFSVKVRKTLCREYQPNHHSDTRWHDLRVTDCSALLKGLSFDCDYKVEVTDTLTGDFVVDGVFSTDTCDQTSSLTPIDCSSVTTPIQCQVTSESSAHCHWTRHHDAMQTVIGYRILLSSPINHDTNTTINQPQLREVRYENLAPGYVYTVEVQSITNKGLGRTVSTQFVTHPDLDSNAIQRFPGGEIIELPLESSGKLSIFSIFSSFFLVLLLRLL	not soluble
MILVTGATGVVGRQVAHTLARSGRVRLLVRDPARLTVEGPGVEVATGAYEDHASLLRALKGVEAAFLVTVDPGGQEDGRFLRAAVAADVRHVVKLSSYAAGEDDADDLITRWQRKCEETLRSSGLDWTLLRPRAFMSNTLSWADSIRREGTVRALYPGSENACVDPRDIAEVAVTALTSPGHEGRVYPLTGPEAVSAEQQTRHLAAVLGRPLVCRELTPQQAAARWARRYPPKVVHALVLSAQRQLLGRKTTTDPTFARVTGHPPRSYRQWATDHRNAFA	not soluble
MIMALSSFGKILTVLDLFSVHRPIINVDIICEELALSKPTGYRYLKELVSSEILQRISGTSGDYTLGPKIAVMDYISRTTDPIVQMSSPFMRDIAERTELCCLLTHLNRDYCIDVHHEVFRNADLLSYGRGCPRPVYMGSSPKVIMAHLPKRQIQDYYQRFSRQLAEVDFAHDEESFLIRMKKIKKDGYYISHGELNPDVTGLSVPIKFSHTKESPMALTLVASKNRFEFINIDKLIEILQANVIHIEQKSLALIQIEKSLH	not soluble
MIMASSAAASISMITLRNLSRNHQSHQSTFLGFSRSFHNQRISSNSPGLSTRARSTTSSTGGFFRTICSSSSNDYSRPTKIQELNVYEFNEGDRNSPAVLKLGKKPDQLCLGDLVPFTNKLYTGDLTKRIGITAGLCVLIQHVPEKKGDRFEASYSFYFGDYGHISVQGPYLTYEDTFLAITGGSGVFEGAYGQVKLRQLVYPTKLFYTFYLKGVAADLPVELTGKHVEPSKEVKPAAEAQATQPGATIANFTN	soluble
MIMNQQLNATKKDKLQVIDWLIENFPNAFFKKGNQVKPLKIGIFDDLIDFYERLDTPPFSKKSLREALSYYSASPAYLSCQKPDTARVDIYGNEVDVVTPEQAKYAYQRYQERYGNKKSQELK	not soluble
MINFDNFKKYQESFGYMAQQLCFPEKLTFHPKTFEETISKDHPAYEDLVAFRNVMMTFSLSEIKAIYTDTFDFTKKAPLYMTYNKFDTQKERGQMLAKLKVLYEMFGLEMVDNELSDYLPLMLQFLQVAEWRNDPRAEENIQLIIMIIEDGTYVMANALGEDNNPYAYVIQALRKTLKLCLTSPKGVKHHA	not soluble
